Results: patent publication US20250223606

Experiments:
[1] = test system: TALED psaA Left (TALE array-split DddAtox/TadA-derived AD) (synthetic construct); assay: cell_activity; conditions: pair with P4; A6 14.66 and 12.27, A5 10.67 and 7.68; lettuce protoplasts 7 days after mRNA; callus A5 8.4 and 7.5, A6 12.2 and 10.0
[2] = test system: TALED psaA Right (TALE array-split DddAtox/TadA-derived AD) (synthetic construct); assay: cell_activity; conditions: pair with P3; A6 14.66 and 12.27, A5 10.67 and 7.68; lettuce protoplasts 7 days after mRNA

Row | Substance | activity [1] | activity [2]
1 | lettuce chloroplast psaA start codon, left half-site | 14.7 % editing | 
2 | lettuce chloroplast psaA start codon, right half-site |  | 14.7 % editing
